The target of test [1] is T1, SARS-CoV-2 spike receptor-binding domain (amino acids 333–529), bacteria-expressed and refolded (SARS-CoV-2, UniProt P0DTC2 333-529). Nature of the test: SPR.
Test [2] deals with T1, SARS-CoV-2 spike receptor-binding …. Nature of the test: SPR. This is another data set of the same source. (In general: Surface plasmon resonance follows binding to a sensor surface in real time, without labels.)

B1: sybody Sb14 (VHH)
VHH: QVQLVESGGGLVQAGGSLRLSCAASGFPVQAREMEWYRQAPGKEREWVAAIKSTGTYTAYAYSVKGRFTISRDNAKNTVYLQMNSLKPEDTAVYYCYVYVGSSYIGQGTQVTVSA
Usually koff stands for a measure of how fast the partners let go of each other. High values mean a short-lived complex, low ones a long-lived complex. By Kd is commonly meant the equilibrium constant for the complex coming apart. A high value points to lower affinity. Molecule B1 yielded a koff in test [1] of 0.007 s⁻¹. In test [2], this molecule displayed a Kd of 13.8 nM.

B2: sybody Sb15 (VHH)
VHH: QVQLVESGGGLVQAGGSLRLSCAASGFPVKNFEMEWYRKAPGKEREWVAAIQSGGVETYYADSVKGRFTISRDNAKNTVYLQMNSLKPEDTAVYYCFVYVGRSYIGQGTQVTVS
Regarding B2, in test [1], the koff worked out at 0.011 s⁻¹.

B3: sybody Sb16 (VHH)
VHH: QVQLVESGGGLVQAGGSLRLSCAASGFPVAYKTMWWYRQAPGKEREWVAAIESYGIKWTRYADSVKGRFTISRDNAKNTVYLQMNSLKPEDTAVYYCIVWVGAQYHGQGTQVTVSA
As for B3, in test [1], the koff was 0.02 s⁻¹. This molecule registered an equilibrium dissociation constant (Kd) in test [2] of 40.6 nM.

B4: sybody Sb68 (VHH)
VHH: QVQLVESGGGSVQAGGSLRLSCAASGSISSITYLGWFRQAPGKEREGVAALITVNGHTYYADSVKGRFTVSLDNAKNTVYLQMNSLKPEDTALYYCAAAAWGYAWPLHQDDYWYWGQGTQVTVSA
B4 returned an off-rate (koff) in test [1] of 0.023 s⁻¹.

Values taken from publication PMC8444450 (2021).
